The values that follow are results of earlier work, collected in PMC11507603.

What is called Kd is the constant that tells how readily two partners part at equilibrium.

The target of the data set is Ubiquitin (UniProt P0CG48). The data set is described as follows: SPR.

Sequence of Epsin Ent1 ENTH (Q12518 8-146): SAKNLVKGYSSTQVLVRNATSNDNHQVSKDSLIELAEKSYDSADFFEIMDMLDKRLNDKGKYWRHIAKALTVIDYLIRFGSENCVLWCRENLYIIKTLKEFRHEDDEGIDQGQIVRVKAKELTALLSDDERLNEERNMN

On to Epsin Ent1 ENTH (from UniProt Q12518), for which the Kd was 2300 µM.
